First the molecules themselves.
B1: Microfibril-associated glycoprotein 4 (natural protein, human, UniProt P55083 22-255, looked up)
chain: VSGIRGDALERFCLQQPLDCDDIYAQGYQSDGVYLIYPSGPSVPVPVFCDMTTEGGKWTVFQKRFNGSVSFFRGWNDYKLGFGRADGEYWLGLQNMHLLTLKQKYELRVDLEDFENNTAYAKYADFSISPNAVSAEEDGYTLFVAGFEDGGAGDSLSYHSGQKFSTFDRDQDLFVQNCAALSSGAFWFRSCHFANLNGFYLGGSHLSYANGINWAQWKGFYYSLKRTEMKIRRA
modifications: intermolecular disulphide bond between C34 of two monomers; N-glycosylated at N87 and N137 (cryo-EM density)
notes: signal peptide in the construct; Q21 is the first residue after signal peptide cleavage; Octamer (8 copies) in TBS with 2 mM Ca2+; tetramer (4 copies) after Ca2+ depletion with EDTA or EGTA; also called MFAP4; source: HEK293 EBNA cells, transfected (pCEP4-MFAP4), conditioned medium, purified by nickel chelating chromatography

Series [1] deals with the molecule itself. As to the kind of experiment: SDS-PAGE; non-reducing, 10% gel, Coomassie stain; disulphide-linked dimer.
Series [2] concerns the molecule itself. As to the kind of experiment: cryo-EM structure; MFAP4 after Ca2+ depletion with 5 mM EDTA; single particle analysis, C2 symmetry; tetramer.
Series [3] deals with the molecule itself. The series can be described thus: dynamic light scattering; TBS/Ca2+ (2 mM); mass from hydrodynamic radius by calibration with standard proteins, globular model; monomers to octamer.
The next series concerns the target T1, fibulin-5 (UniProt Q9UBX5 24-448).
T1 construct: fibulin-5, recombinant
T1 sequence (looked up): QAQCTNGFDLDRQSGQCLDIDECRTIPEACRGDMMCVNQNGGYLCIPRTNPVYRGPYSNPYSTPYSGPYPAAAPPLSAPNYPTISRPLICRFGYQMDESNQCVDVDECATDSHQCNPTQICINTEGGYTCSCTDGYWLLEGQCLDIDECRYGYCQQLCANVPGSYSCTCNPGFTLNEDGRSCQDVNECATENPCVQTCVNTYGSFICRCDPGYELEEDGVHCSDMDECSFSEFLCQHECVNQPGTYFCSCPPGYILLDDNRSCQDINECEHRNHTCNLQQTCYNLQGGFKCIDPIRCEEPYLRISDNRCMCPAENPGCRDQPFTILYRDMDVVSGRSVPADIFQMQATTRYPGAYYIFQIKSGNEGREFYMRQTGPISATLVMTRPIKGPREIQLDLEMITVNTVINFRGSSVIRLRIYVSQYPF
The series can be described thus: SPR; Ca2+ form (octamer): MFAP4 or MFAP4_(C34S) amine-coupled on CM5 (Biacore X), elastogenic proteins as analytes 5-100 µg/mL in TBS/Ca2+ (2 mM CaCl2); 1:1 Langmuir fit, KD is the average over five concentrations. As to conditions: both partners purified. Background: Surface plasmon resonance follows binding to a sensor surface in real time, without labels.

Series [4] concerns the target T2, recombinant human tropoelastin (human, UniProt P15502 27-786).
T2 construct: human tropoelastin, recombinant; source: bought: Elastagen
T2 sequence (looked up): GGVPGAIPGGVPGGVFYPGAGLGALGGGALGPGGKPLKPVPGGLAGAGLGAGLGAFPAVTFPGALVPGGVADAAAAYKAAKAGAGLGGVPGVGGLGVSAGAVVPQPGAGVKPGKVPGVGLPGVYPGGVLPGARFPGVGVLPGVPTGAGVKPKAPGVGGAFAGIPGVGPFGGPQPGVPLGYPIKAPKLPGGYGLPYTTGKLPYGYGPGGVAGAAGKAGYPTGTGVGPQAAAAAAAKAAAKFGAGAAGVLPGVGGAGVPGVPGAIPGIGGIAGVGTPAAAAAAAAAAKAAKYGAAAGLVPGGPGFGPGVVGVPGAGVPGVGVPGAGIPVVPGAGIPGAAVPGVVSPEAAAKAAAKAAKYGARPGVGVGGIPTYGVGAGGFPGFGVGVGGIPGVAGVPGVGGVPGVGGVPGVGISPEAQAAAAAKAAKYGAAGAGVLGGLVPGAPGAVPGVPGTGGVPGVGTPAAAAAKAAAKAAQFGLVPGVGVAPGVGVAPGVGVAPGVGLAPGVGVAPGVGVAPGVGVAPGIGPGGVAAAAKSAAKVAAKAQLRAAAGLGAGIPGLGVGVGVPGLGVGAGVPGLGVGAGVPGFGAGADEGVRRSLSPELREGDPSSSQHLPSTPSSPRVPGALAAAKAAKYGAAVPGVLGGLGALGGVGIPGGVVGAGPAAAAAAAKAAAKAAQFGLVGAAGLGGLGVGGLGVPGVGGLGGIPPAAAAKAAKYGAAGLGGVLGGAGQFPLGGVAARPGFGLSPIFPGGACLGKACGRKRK
Described as above. As to conditions: both partners purified.

The target of series [5] is T3, latent transforming growth factor beta binding protein-4, long isoform (UniProt Q8N2S1-1 28-1624).
T3 construct: LTBP4, long isoform (LTBP4L); also called LTBP4L
Described as above. The conditions noted are these: both partners purified.

The target in a further series is T4, fibulin-4 (UniProt O95967 24-443).
T4 construct: fibulin-4, recombinant
T4 sequence (looked up): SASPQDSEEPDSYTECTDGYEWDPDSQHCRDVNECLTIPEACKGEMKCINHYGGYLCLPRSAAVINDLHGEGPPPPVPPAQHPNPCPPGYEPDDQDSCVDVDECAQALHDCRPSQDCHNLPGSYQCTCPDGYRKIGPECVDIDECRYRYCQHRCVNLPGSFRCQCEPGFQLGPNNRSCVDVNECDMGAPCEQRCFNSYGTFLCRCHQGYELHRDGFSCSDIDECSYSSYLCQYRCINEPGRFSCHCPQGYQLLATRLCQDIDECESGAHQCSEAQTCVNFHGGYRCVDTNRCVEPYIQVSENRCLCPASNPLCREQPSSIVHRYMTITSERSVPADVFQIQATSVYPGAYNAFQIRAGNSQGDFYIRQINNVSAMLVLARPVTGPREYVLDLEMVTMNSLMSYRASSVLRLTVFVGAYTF
The description is as above. The conditions noted are these: both partners purified.

Series [6] concerns the molecule itself. As to the kind of experiment: SPR; self-interaction of octamers; Biacore X, CM5 chip, MFAP4 or MFAP4_(C34S) amine-coupled (300-500 RU), same protein as analyte 5-100 µg/mL in TBS/Ca2+ (50 mM Tris-HCl pH 7.4, 150 mM NaCl, 2 mM CaCl2); 1:1 Langmuir fit, KD is the average over five concentrations.
Series [7] concerns the molecule itself. The series can be described thus: atomic force microscopy; MFAP4 or MFAP4_(C34S) Ca2+-depleted (5 mM EDTA); particle heights on mica, tapping mode in air.
Series [8] concerns the target B1. The series can be described thus: SPR; Ca2+ form (octamer): MFAP4 or MFAP4_(C34S) amine-coupled on CM5 (Biacore X), elastogenic proteins as analytes 5-100 µg/mL in TBS/Ca2+ (2 mM CaCl2); 1:1 Langmuir fit, KD is the average over five concentrations. As to conditions: both partners purified.

By stoichiometry N is commonly meant the number of molecules, sites or subunits per partner or assembly. The Kd is the constant that tells how readily two partners part at equilibrium.

T3 sequence (Q8N2S1 28-1624): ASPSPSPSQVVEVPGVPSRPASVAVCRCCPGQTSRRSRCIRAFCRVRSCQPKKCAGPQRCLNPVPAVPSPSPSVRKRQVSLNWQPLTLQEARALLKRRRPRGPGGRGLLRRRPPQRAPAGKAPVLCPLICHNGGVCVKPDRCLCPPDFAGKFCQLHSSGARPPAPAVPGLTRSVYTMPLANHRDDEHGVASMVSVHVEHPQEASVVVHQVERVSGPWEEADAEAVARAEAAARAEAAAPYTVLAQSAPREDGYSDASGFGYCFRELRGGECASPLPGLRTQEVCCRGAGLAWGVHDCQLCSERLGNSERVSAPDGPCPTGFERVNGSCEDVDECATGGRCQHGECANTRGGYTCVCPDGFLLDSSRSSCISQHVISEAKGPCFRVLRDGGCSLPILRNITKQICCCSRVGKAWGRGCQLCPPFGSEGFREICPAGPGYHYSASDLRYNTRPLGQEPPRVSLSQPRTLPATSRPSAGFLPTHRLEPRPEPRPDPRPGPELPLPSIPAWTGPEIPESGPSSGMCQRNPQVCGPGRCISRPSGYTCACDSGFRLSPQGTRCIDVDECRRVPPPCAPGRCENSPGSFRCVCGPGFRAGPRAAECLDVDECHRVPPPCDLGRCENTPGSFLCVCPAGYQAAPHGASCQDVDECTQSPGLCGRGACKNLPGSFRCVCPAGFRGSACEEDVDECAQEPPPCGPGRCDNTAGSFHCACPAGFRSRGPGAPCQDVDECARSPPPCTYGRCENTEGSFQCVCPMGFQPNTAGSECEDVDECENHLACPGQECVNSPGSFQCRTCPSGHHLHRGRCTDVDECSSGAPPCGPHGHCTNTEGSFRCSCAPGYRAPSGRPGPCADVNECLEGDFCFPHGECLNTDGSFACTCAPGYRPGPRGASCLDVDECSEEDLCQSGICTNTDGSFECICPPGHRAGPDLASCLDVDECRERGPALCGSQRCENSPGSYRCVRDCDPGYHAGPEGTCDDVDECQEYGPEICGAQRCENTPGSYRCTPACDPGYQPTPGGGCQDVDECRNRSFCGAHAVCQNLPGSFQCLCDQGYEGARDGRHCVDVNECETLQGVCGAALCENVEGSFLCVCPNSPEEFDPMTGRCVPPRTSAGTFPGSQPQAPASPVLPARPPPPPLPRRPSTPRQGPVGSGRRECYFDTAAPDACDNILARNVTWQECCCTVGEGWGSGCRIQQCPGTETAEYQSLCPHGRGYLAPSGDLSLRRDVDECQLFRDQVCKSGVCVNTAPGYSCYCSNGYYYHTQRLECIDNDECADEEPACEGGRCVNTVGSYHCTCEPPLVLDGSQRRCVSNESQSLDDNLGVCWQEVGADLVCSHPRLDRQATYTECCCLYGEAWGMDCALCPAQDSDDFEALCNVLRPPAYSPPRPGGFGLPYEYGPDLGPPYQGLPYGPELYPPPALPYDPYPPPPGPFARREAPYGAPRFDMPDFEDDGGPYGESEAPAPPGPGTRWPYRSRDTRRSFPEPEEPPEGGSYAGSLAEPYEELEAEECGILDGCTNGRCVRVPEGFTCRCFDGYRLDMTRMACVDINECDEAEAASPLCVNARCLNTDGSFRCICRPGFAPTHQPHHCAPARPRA

With B1, the “stoichiometry N” value in [1] amounted to 2; in series [2] it was 4; in [3], 8. Moreover, the Kd amounted to 0.357 µM in the series with fibulin-5; 0.045 µM in [4]; 0.018 µM in series [5]; 0.11 µM in the series with fibulin-4; 0.0062 µM in series [6].

B2: MFAP4_(C34S) (natural protein, human, UniProt P55083 22-255, looked up)
chain: VSGIRGDALERFSLQQPLDCDDIYAQGYQSDGVYLIYPSGPSVPVPVFCDMTTEGGKWTVFQKRFNGSVSFFRGWNDYKLGFGRADGEYWLGLQNMHLLTLKQKYELRVDLEDFENNTAYAKYADFSISPNAVSAEEDGYTLFVAGFEDGGAGDSLSYHSGQKFSTFDRDQDLFVQNCAALSSGAFWFRSCHFANLNGFYLGGSHLSYANGINWAQWKGFYYSLKRTEMKIRRA
notes: signal peptide in the construct; human MFAP4, M1KAL...IRRA255 with C34S; Q21 is the first residue after signal peptide cleavage; Octamer in TBS with Ca2+; tetramer after Ca2+ depletion; No intermolecular disulphide bond; also called MFAP_(C34S); source: HEK293 EBNA cells, transfected (pCEP4-MFAP4_(C34S)), conditioned medium, purified by nickel chelating chromatography
For the molecule B2, the figures for the “stoichiometry N” value in series [7] and in series [3] were 4 and 8, respectively. This molecule had a Kd in series [6] of 0.0058 µM.

B3: fibrillin-1 centre region fragment rF1M (domain or fragment)
chain: not shown
With B3, binding in series [8] was characterised by a dissociation constant (Kd) of 0.0012 µM.

For the origin of these results see publication PMC11091212, “Microfibril-associated glycoprotein 4 forms octamers that mediate interactions with elastogenic proteins and cells” (Nature Communications, 2024).
